T1: human BCMA amino acid residues 1-54 (linear and conformational CLIPS peptide libraries) (human, UniProt Q02223 1-54)
T1 sequence: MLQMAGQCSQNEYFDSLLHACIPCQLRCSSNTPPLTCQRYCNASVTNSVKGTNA

T2: human BCMA (B-cell maturation antigen) on cells (human, UniProt Q02223 1-184)
T2 construct: whole, on cells; also called hBCMA; hBCMA/HEK293 cell line
T2 sequence (looked up): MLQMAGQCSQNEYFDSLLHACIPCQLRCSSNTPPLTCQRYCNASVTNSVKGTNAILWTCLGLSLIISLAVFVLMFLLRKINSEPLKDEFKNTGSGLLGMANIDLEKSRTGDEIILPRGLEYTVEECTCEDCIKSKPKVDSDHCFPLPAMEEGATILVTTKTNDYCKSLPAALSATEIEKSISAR

T3: BCMA peptide 30SNTPPLTCQR39 (human)
T3 construct: Peptide of the CLIPS library; recognised in a linear form
T3 peptide: SNTPPLTCQR


Columns and labels:
[1] = biological target: T1, human BCMA amino acid residues 1-54 …; experiment: CLIPS peptide array ELISA
Protocol: (§1) Epitopes recognized, e.g., specifically bound to, by exemplary anti-BCMA scFv clones (BCMA-1, BCMA-5, BCMA-9, BCMA-23, BCMA-25, BCMA-26, BCMA-52 and BCMA-55 anti-BCMA scFvs), were assessed using full discontinuous epitope mapping by Chemical Linkage of Peptides onto Scaffolds (CLIPS; Pepscan Presto BV, Lelystad, The Netherlands; see, e.g., Timmerman et al., (2007) J. Mol. Recognit. 20: 283-329). Mapping was carried out using anti-BCMA scFv clones, such as those fused with mouse Fc (scFv-mFc).
(§2) Linear and conformational peptide libraries of amino acid residues 1-54 of human BCMA (set forth as amino acid residues 1-54 of SEQ ID NO:367) were generated based on a combinatorial matrix design. Linear peptides and structural mimetics including single loop, α-helix, β-turn, combinatorial and linear disulfide bridge mimics, and discontinuous epitope mimics were used, along with positive and negative control peptides, on an amino-functionalized solid support.
(§3) Affinities for binding to the peptides in the epitope library were determined using ELISA. The peptide arrays were incubated with a solution containing the scFv overnight at 4° C. Affinity information was used in iterative screens to define the sequence and conformation of epitopes. Heat maps of affinity information for two or more loops were generated.

[2] = biological target: T2, human BCMA (B-cell maturation antigen) …; experiment: flow cytometry on hBCMA-expressing HEK293 cells
[3] = biological target: T2, human BCMA (B-cell maturation antigen) …; experiment: flow cytometry, hBCMA-overexpressing HEK293 compared with OPM2 and RPMI-8226 cells
Protocol: Binding of exemplary scFv clones to hBMCA-overexpressing HEK293 cells as compared to OPM2 and RPMI-8226 cell lines that express moderate levels of endogenous BCMA was assessed.

[4] = biological target: T3, BCMA peptide 30SNTPPLTCQR39; experiment: CLIPS peptide array ELISA
Protocol: as §1, §2, §3

Row | binding result [1] | Binder | other results
1 | binds | BCMA-26 anti-BCMA scFv (scFv, VH-(G4S)3-VL scFv) scFv: EVQLVESGGGLVKPGGSLRLSCAASGFTFSDYYMSWIRQAPGKGLEWVSYISSSGSTIYYADSVKGRFTISRDNAKNSLYLQMNSLRAEDTAVYYCAKVDGPPSFDIWGQGTMVTVSSGGGGSGGGGSGGGGSSYVLTQPPSVSVAPGQTARITCGANNIGSKSVHWYQQKPGQAPMLVVYDDDDRPSGIPERFSGSNSGNTATLTISGVEAGDEADYFCHLWDRSRDHYVFGTGTKLTVL | 
2 | binds | BCMA-55-scFv-mFc (Fc fusion, scFv fused with mouse Fc; The order scFv then Fc follows the label; also called BCMA-55 anti-BCMA scFv; not shown: mouse Fc (mFc)) QSALTQPASVSASPGQSIAISCTGTSSDVGWYQQHPGKAPKLMIYEDSKRPSGVSNRFSGSKSGNTASLTISGLQAEDEADYYCSSNTRSSTLVFGGGTKLTVLGSRGGGGSGGGGSGGGGSLEMAEVQLVQSGAEMKKPGASLKLSCKASGYTFIDYYVYWMRQAPGQGLESMGWINPNSGGTNYAQKFQGRVTMTRDTSISTAYMELSRLRSDDTAMYYCARSQRDGYMDYWGQGTLVTVSS | 
3 |  | BCMA-16 anti-BCMA scFv (scFv, VH-(G4S)3-VL scFv) scFv: EVQLVQSGPEVKKPGTSVKVSCKASGFTFTSSAMQWVRQARGQRLEWIGWIVVGSGNTNYAQKFQERVTITRDMSTSTAYMELSSLRSEDTAVYYCAAAPYYDILTGYYLWGQGTLVTVSSGGGGSGGGGSGGGGSQSALTQPPSASGTPGQRVTISCSGSGSNIGSNDVSWYQQIPGTAPKLLIYWNDQRPSGVPDRFSGSKSGTSASLAISGLQSEDEADYYCASWDDSLSGWVFGGGTKLTVL | binding result [2]: no binding
4 | binds | BCMA-52-scFv-mFc (Fc fusion, scFv fused with mouse Fc; The order scFv then Fc follows the label; also called BCMA-52 anti-BCMA scFv; not shown: mouse Fc (mFc)) SYELTQPPSASGTPGQRVTMSCSGTSSNIGSHSVNWYQQLPGTAPKLLIYTNNQRPSGVPDRFSGSKSGTSASLAISGLQSEDEADYYCAAWDGSLNGLVFGGGTKLTVLGSRGGGGSGGGGSGGGGSLEMAEVQLVQSGAEVKKPGESLKISCKGSGYSFTSYWIGWVRQMPGKGLEWMGIIYPGDSDTRYSPSFQGHVTISADKSISTAYLQWSSLKASDTAMYYCARYSGSFDNWGQGTLVTVSS | 
5 |  | BCMA-5 anti-BCMA scFv (scFv, VH-(G4S)3-VL scFv) scFv: QVQLVQSGGGLVQPGRSLRLSCTASGFTFGDYAMSWFRQAPGKGLEWVGFIRSKAYGGTTEYAASVKGRFTISRDDSKSIAYLQMNSLKTEDTAVYYCAAWSAPTDYWGQGTLVTVSSGGGGSGGGGSGGGGSDIVMTQSPDSLAVSLGERATINCKSSQSVLYSSNNKNYLAWYQQKPGQPPKLLIYWASTRESGVPDRFSGSGSGTDFTLTISSLQAEDVAVYYCQQYYSTPWTFGQGTKVDIK | binding result [3]: binds; binding result [4]: binds

Reference: patent publication US20200392236A1 (JUNO THERAPEUTICS, published 2020)
